Measured values: the NTF2 design screens of Basanta et al. (2020)

test: protease stability score; higher = more stable; yeast display proteolysis, trypsin and chymotrypsin;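 note: relative to predicted unfolded state with 0 unfolded-like and 1 meaning tenfold more protease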

Row | Sequence | protease stability score
1 | SEAERDAKELLELIVTTMRTGDEETLNRLMDPHTRLHVNGRDLIGRELMTEFLHEIRIEDSRTRDVRVFNGRLEVEGKLRGDWNGVEREVETRYIVEKVNGRWLLHSVTFE | 0.413
2 | DKLHHDARWMMERLYETLETGDFHSFLRLADPEVLLIINGQFLHGREEVERFYDEEREKFKGLTIKHLHIHRVEMQGDKVRVDSRIHHIINGVNVHNNVKLEFVAFDGRMHRLRIEEE | 1.24
3 | SEEEELWEELKELSEEWFETGDEDRLLEMADPHVKVVFNGKHEHGREALRLVLETMKRRFKNATYHPHTIELQGEKVFLKIKVRVGDKEQELEIILIIVDGRLKEIRIHIRIK | 2.62
4 | DDQEKLVRKAWELLVRHLHTGDEEHLDKLIDPNTRMTYNGRETHGMELFSHLMTHLRVKDMDLKEVRIVDGRAILDGHLHGEIDGRETTTRTTYIILKIDGRWFVKSVRFE | 1.15
5 | SEEDKKVEEAIKYLYSFLKTGDEHEVEDMIDPHVRIDVNGKNVHGWEEAFRWTVEHMKKLGVERFEVEIKDVHKQGNYVRVLGHSRFNGKEYEIEIILIKVNGRWIIKSHRIH | 1.64
6 | DEEEELIKHHLELHLEAVKTGDEEHLHRNMDPNVRLHVNGQDRHGREDVSTLLREIRLKDFKIHDVDIQGNKMRFDGFILGEINGREHNVHTTIYAEKVDGRWLIRHFEIR | 1.04
7 | DESKEVSEDALRIMIELIKTGDEHLLQRYIDPDVRVDVNGRHTHGWHWVVRQIFEEIKRVDHMRIHLDSERVFNGRVHLDVTIHVHINGVEIDIKITLTFHKFDGRWLFHHIKHK | 0.195
8 | SEEEELARHIFELWIKTLRTGDEKLLRELADPHVQVILLVDGRHLENHGWEEFVRIFKEWRIHRVHVHDVKVFENRIHMDGTIDYEIGDKRFITKRIVDLVVINGRLKRLEIQIH | 2.66
9 | DELHHVLEIMLRELITAWRTGDERVLNELFDPHVLIVIGDKYYHGREFVTRWLRHIRIKHSEFHLRRIHIQGDYVHITGEFRIEGEFDGRENTVTHDSKIVTLKIDGRWTFHSIVLE | 2.16
10 | DEENKHLKEIARRFVEDWETGDEDSLKHMLDPHARVVINGVEVHGREEIIKLFREIFHHIRIDHITVNTVITVNGVAHSHIHIRVDINGQERRHNTELIFVFVDGQVSQIKFETE | 1.24
11 | DEWHELANEIMQLLIELWLTGDEEIVLKLADPNVKVKIIVNGRTYSNHGREMFHDWHRRVDYIHEIRIKDVTFVNGVVISDTHVDGTINGVRMRTDTKMIVVVVNGKLKSAEYRVE | 1.11
12 | EDEERETEEAIRLFIKNEITGDWKRLLHYLDPNVRVRIGDKEIHGMERWKDEFKQEIDRVKGLRYELDDERRHLVDGKIEIILDFTIHVGEKRHRFQLVLILVKVNGRWIMHSIHVNYL | 1.54
13 | DEEEERMDRAYDHWRENILTGDWKRLRELADPHAKMDINGVDIHGMETFNKILSEELKEIRLKDVHIDDKHVVDGQLHVHGKRETLFNGKNTWIKTHIHLVIIDGRFHSYTVHIE | 0.281
14 | SDMDEMISRFRREVEHSMQTGDERFDHEMADPHARFWINGVLFHGRHALEMWKEELGVDNFKIRHIHIRDEKIQGNKITLDVEYHLLVNGQQVDLRVILIYRKVNGKWTLEEERLV | 0.851
15 | DEDEKMMELIIKWLQNWMLTGDFDVLHDLVDPHAKYDIGDKEMHGREAQSFLRRRFDHIEHVHLRIDDVESQGDKLIVHGQNTVVGEINGKRENFKRKVHITLEKIDGQWFEREVRVR | 1.51
16 | SKEEKDYWEFAEIWISDLLTGDEDLRKHLHDPDVRYHYHQGDKTFETHGMEEVLKLDKDLWRRLGVKHLEIHRVEVQGDKIHLDARLQVGDKSTEVHILLIVVNGKVKHIHIFVH | 1.2
17 | SEEEQRKEDFLRWFHKALLTGDEEVLLKMADPNVRADINGVDIHGWKEFRQTTHDLRREIRIRDFEVKDEKLVGDKLHVDSSVDGEFDGRRHELKTHLIFLKVDGKWFFKEIRIK | 1.34
18 | SEEEHVTDLALELWIRTHNTGNWHLLKRLLDPNTRVQVGNKIYHGMELISKEIFRKLLEMGFETHIEVEDSEYFEGHVRFRITIRLVVGDKEIILDTELLMIKFNGRWFITEIRIE | 0.686
19 | HRVETEAHHMMKLLEHWLQTGDEEMWKTYADPDVRIDVDGKTLHGRDNFEHVLRMYGIKHRHIRDSHYHFIGDYLHYNLDVEVHFNGKDLKTHFTFQIRKVDGRWELERVHIRVH | 0.941
20 | HDEDEESRNAVEEYWRVLHTGDEKRWHELADPNVRNEIDGRTYHGRESFRFLFHLHEEKFKNVKIELHSVNIQGDKIKMLIEIKYGDKNIHMIIIAQKIDGKWKNERIHVFHH | 0.744
